Consider one molecule from paper PMC12562432, “G4 Oligonucleotide-Based Chaperones of Heterogeneous Nuclear Ribonucleoprotein A1”.

The data set concerns the target hnRNP A1 (UniProt P09651 1-251+304-372, internal_change). As to the kind of experiment: MST; 150 mM KCl; MST: 100 nM RED-labelled hnRNP A1, oligonucleotide titrated, 10 min incubation, working buffer with 150 mM KCl (40 mM HEPES-KOH pH 7.0 stated for the other assays); Hill model; temperature not stated. The settings on record: tags: RED dye label (MST); parallel G4 loop on short duplex stem GCUGC/GCAGC, 5' single-stranded UCAGUU.

Sequence of hnRNP A1 (P09651 other isoform, or with tags, fused parts or gaps): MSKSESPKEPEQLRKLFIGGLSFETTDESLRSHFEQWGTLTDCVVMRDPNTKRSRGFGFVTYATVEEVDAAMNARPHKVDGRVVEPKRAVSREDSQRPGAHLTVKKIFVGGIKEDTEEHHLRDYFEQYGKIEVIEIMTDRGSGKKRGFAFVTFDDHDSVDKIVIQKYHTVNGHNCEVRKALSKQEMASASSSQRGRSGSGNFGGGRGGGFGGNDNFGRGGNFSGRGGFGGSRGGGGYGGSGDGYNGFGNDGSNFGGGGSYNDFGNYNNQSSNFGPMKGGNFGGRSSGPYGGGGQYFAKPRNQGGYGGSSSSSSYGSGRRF

B1: chap-RNA (structured_RNA)
RNA: UCAGUUGCUGCGGGUGGGUGGGUGGGGCAGC
With B1, the Kd – broadly, the equilibrium constant for the complex coming apart – came to 6 ± 1 µM.
